Data published in the supplement of paper PMC7125110.
± gives the standard error. This sample holds only a part of the variants without activity.

B1: glmS ribozyme (parent)
chain: AUAAAAGCGCCAGAACUACAGAAAUGUAGUUGACGAGGAGGAGGUUUAUCGAAUUUUCGGCGGAUGCCUCCAAA

Columns and labels:
Settings in all cases: with glucosamine-6-phosphate
glucosamine-6-phosphate [1] = variants of: B1; test: self-cleavage kobs at 40 uM GlcN6P; higher = faster cleavage; RNA array
How it was run: (§1)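 On sequenced MiSeq chips, barcoded ribozyme variants were made in situ by E. coli RNA polymerase and followed at 37 °C through a hybridised Cy3 probe. Glucosamine-6-phosphate was flowed in at 40 μM to 10 mM in HEPES/KCl/Mg(OAc)2 buffer. Exponential fits to normalised per-tile medians gave kobs, and weighted Michaelis–Menten fits gave kcat and KM.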

glucosamine-6-phosphate [2] = variants of: B1; test: self-cleavage kobs at 10000 uM GlcN6P; higher = faster cleavage; RNA array
How it was run: as §1

glucosamine-6-phosphate [3] = variants of: B1; test: self-cleavage kobs at 160 uM GlcN6P; higher = faster cleavage; RNA array
How it was run: as §1

glucosamine-6-phosphate [4] = variants of: B1; test: self-cleavage kobs at 640 uM GlcN6P; higher = faster cleavage; RNA array
How it was run: as §1

glucosamine-6-phosphate [5] = variants of: B1; test: self-cleavage kobs at 2500 uM GlcN6P; higher = faster cleavage; RNA array
How it was run: as §1

Variant	self-cleavage kobs at 40 uM GlcN6P (glucosamine-6-phosphate [1])	self-cleavage kobs at 10000 uM GlcN6P (glucosamine-6-phosphate [2])	self-cleavage kobs at 160 uM GlcN6P (glucosamine-6-phosphate [3])	self-cleavage kobs at 640 uM GlcN6P (glucosamine-6-phosphate [4])	self-cleavage kobs at 2500 uM GlcN6P (glucosamine-6-phosphate [5])
C67G C70G	< 1e-05 s⁻¹	< 1e-05 s⁻¹			
C8A U31C A48U G51A G59C			< 1e-05 s⁻¹	< 1e-05 s⁻¹	< 1e-05 s⁻¹
G9A A36U C68U			< 1e-05 s⁻¹	< 1e-05 s⁻¹	
A6C G35C U46A C61A			< 1e-05 s⁻¹	< 1e-05 s⁻¹	< 1e-05 s⁻¹
G7A U54C U65G C67U			< 1e-05 s⁻¹	< 1e-05 s⁻¹	< 1e-05 s⁻¹
C8A U31G G62A			< 1e-05 s⁻¹		< 1e-05 s⁻¹
C8U G29U G41A G44C			< 1e-05 s⁻¹		
A6G C11U A15U C50U		< 1e-05 s⁻¹	< 1e-05 s⁻¹		
C8G C16A		< 1e-05 s⁻¹	< 1e-05 s⁻¹	< 1e-05 s⁻¹	< 1e-05 s⁻¹
C8G C16G		< 1e-05 s⁻¹	< 1e-05 s⁻¹	< 1e-05 s⁻¹	< 1e-05 s⁻¹
C8U G66C		< 1e-05 s⁻¹	< 1e-05 s⁻¹	< 1e-05 s⁻¹	< 1e-05 s⁻¹
C8U G66U		< 1e-05 s⁻¹	< 1e-05 s⁻¹	< 1e-05 s⁻¹	
G9A A12U U31A A52G G59C			< 1e-05 s⁻¹		< 1e-05 s⁻¹
G7A A12C			< 1e-05 s⁻¹		
A6U A12G G66U			8.08e-05 ± 2.3e-05 s⁻¹		
G7U A15C A36U U47C			< 1e-05 s⁻¹	< 1e-05 s⁻¹	< 1e-05 s⁻¹
G9A A36C G41U A64G C70U		< 1e-05 s⁻¹	< 1e-05 s⁻¹	< 1e-05 s⁻¹	< 1e-05 s⁻¹
C8G G59A C71G			< 1e-05 s⁻¹		
G9A C16U G41A A48U		< 1e-05 s⁻¹	< 1e-05 s⁻¹	< 1e-05 s⁻¹	< 1e-05 s⁻¹
A6U A14U G38U C50A G51U A53C G63A			< 1e-05 s⁻¹		
C8U A14U G37U G41U			< 1e-05 s⁻¹	< 1e-05 s⁻¹	< 1e-05 s⁻¹
A6U G9A U49C			< 1e-05 s⁻¹		
A6G G44A C71A		< 1e-05 s⁻¹	< 1e-05 s⁻¹	< 1e-05 s⁻¹	< 1e-05 s⁻¹
A64G U65C C68A	< 1e-05 s⁻¹	< 1e-05 s⁻¹			< 1e-05 s⁻¹

Variant	self-cleavage kobs at 40 uM GlcN6P (glucosamine-6-phosphate [1])	self-cleavage kobs at 10000 uM GlcN6P (glucosamine-6-phosphate [2])	self-cleavage kobs at 160 uM GlcN6P (glucosamine-6-phosphate [3])	self-cleavage kobs at 640 uM GlcN6P (glucosamine-6-phosphate [4])	self-cleavage kobs at 2500 uM GlcN6P (glucosamine-6-phosphate [5])
A6G C11U G43C			< 1e-05 s⁻¹	< 1e-05 s⁻¹	
G7A A48U A53U U65A			< 1e-05 s⁻¹	< 1e-05 s⁻¹	
G62A A64G	< 1e-05 s⁻¹				
G62A A64U	< 1e-05 s⁻¹	< 1e-05 s⁻¹		< 1e-05 s⁻¹	
G66A C71A	0.000146 ± 2.1e-05 s⁻¹	0.00424 ± 0.00059 s⁻¹	0.00048 ± 9.5e-05 s⁻¹	0.0014 ± 0.00036 s⁻¹	
G9A G29U A36C			< 1e-05 s⁻¹	< 1e-05 s⁻¹	< 1e-05 s⁻¹
G7C U45A		< 1e-05 s⁻¹	< 1e-05 s⁻¹	< 1e-05 s⁻¹	< 1e-05 s⁻¹
C8U U47C A48C C67G			< 1e-05 s⁻¹	< 1e-05 s⁻¹	< 1e-05 s⁻¹
G7C C16G		< 1e-05 s⁻¹	< 1e-05 s⁻¹	< 1e-05 s⁻¹	
A6G G9A		< 1e-05 s⁻¹	< 1e-05 s⁻¹	< 1e-05 s⁻¹	< 1e-05 s⁻¹
C8U G35C C70G			< 1e-05 s⁻¹		
G9A A12G A14G G35U			< 1e-05 s⁻¹		< 1e-05 s⁻¹
A6C C16U G40A U57C U69A			< 1e-05 s⁻¹		
G9A G38A G51A			< 1e-05 s⁻¹	< 1e-05 s⁻¹	< 1e-05 s⁻¹
C8G G13C U30G C68G C70G			0.000998 ± 0.00044 s⁻¹		
C8U G32A U45A U56C		< 1e-05 s⁻¹	< 1e-05 s⁻¹	< 1e-05 s⁻¹	< 1e-05 s⁻¹
C8A U30A G37U C58A			< 1e-05 s⁻¹		
G62C A64G	< 1e-05 s⁻¹	< 1e-05 s⁻¹		< 1e-05 s⁻¹	
C8U A42U A64C U69C			< 1e-05 s⁻¹	< 1e-05 s⁻¹	
A6C G44U		< 1e-05 s⁻¹	< 1e-05 s⁻¹	< 1e-05 s⁻¹	< 1e-05 s⁻¹
A6U C11U			< 1e-05 s⁻¹		
G9A A52U C70U			< 1e-05 s⁻¹		
C70A	0.000267 ± 7.7e-05 s⁻¹	0.00384 ± 0.0011 s⁻¹	0.000416 ± 0.00014 s⁻¹	0.00093 ± 0.00021 s⁻¹	0.000583 ± 4.1e-05 s⁻¹
C70U	0.00149 ± 4.2e-05 s⁻¹	0.0554 ± 0.0035 s⁻¹	0.00417 ± 0.00021 s⁻¹	0.0095 ± 0.00039 s⁻¹	0.0161 ± 0.0012 s⁻¹
